Experimental data from patent publication US20240270839A1 (ELPISCIENCE SUZHOU BIOPHARMA, published 2024).
Substitutions are numbered along the chain they refer to. Values joined by “and” are separate entries in the source; they are usually repeats but may differ in a detail not shown here. Equal values may be shown once.

B1: hu35B4.H1L2 (antibody, V domains shown)
VH: EVQLLESGGGLVQPGGSLRLSCAASGFTLSSYALSWVRQAPGKGLEWVSYISNLGGSTFYPDTVKGRFTISRDNSKNTLYLQMNSLRAEDTAVYYCAKHLYNYDAFASWGQGTLVTVSS
VL: DIQLTQSPSFLSASVGDRVTITCRASSSVNYIHWYQQKPGKAPKALIYATSNLASGVPSRFSGSGSGTEYTLTISSLQPEDFATYYCQQWNSNPLTFGQGTKLEIK
notes: humanized 35B4
B2: hu35B4.H3L4 (antibody, V domains shown)
VH: B1 VH with S49A, K98T
VL: B1 VL with I21M, A42S, L77V
notes: humanized 35B4
B3: ch35B4 (antibody, V domains shown)
VH: EAKLVESGGDFMQPGGSLKLSCAASGFTLSSYALSWVRQTPEKRLEWVAYISNLGGSTFYPDTVKGRFTISRDNARNTLFLQMSSLQSEDTAIYYCATHLYNYDAFASWGQGTLVTVSA
VL: QIVLSQSPAILSASPGEKVTMTCRASSSVNYIHWYQQKPGSSPKAWIYATSNLASGVPTRFSGSGSGTSYSLTIDRVEAEDAATYYCQQWNSNPLTFGAGTKLELK
B4: ch22E12 (antibody, V domains shown)
VH: QVQLQQPGTELVKTGTSVKLSCKASGYTFTNWVHWVIQRPGQGLEWIGEINPTNGRSNYNEKFKKKATLTLDRSSTTAYMQLSSLTSEDSAVYFCAGIYYGNSFAHWGQGTLVTVSA
VL: DIVMTQSPSSLTVTAGEKVTLSCKSSQSLLNSGNQKNYLTWYQQKPGQPPKLLIYWSSTRESGVPDRFTGSGSGTDFTLTISSVQAEDLAVYHCQNNYYYPLTFGAGTKLELK
B5: hu22E12.H1L2 (antibody, V domains shown)
VH: QVQLVQSGAEVKKPGASVKVSCKASGYTFTNWVHWVRQAPGQGLEWMGEINPTNARSNYNEKFKKRVTMTRDTSTSTVYMELSSLRSEDTAVYYCARIYYGNSFAHWGQGTLVTVSS
VL: DIVMTQSPDSLAVSLGERATINCKSSQSLLNAGNQKNYLTWYQQKPGQPPKLLIYWSSTRESGVPDRFSGSGSGTDFTLTISSLQAEDVAVYHCQNNYYYPLTFGGGTKLEIK
notes: humanized 22E12
B6: hu22E12.H1L2-ADE (antibody, human IgG1)
heavy: QVQLVQSGAEVKKPGASVKVSCKASGYTFTNWVHWVRQAPGQGLEWMGEINPTNARSNYNEKFKKRVTMTRDTSTSTVYMELSSLRSEDTAVYYCARIYYGNSFAHWGQGTLVTVSSASTKGPSVFPLAPSSKSTSGGTAALGCLVKDYFPEPVTVSWNSGALTSGVHTFPAVLQSSGLYSLSSVVTVPSSSLGTQTYICNVNHKPSNTKVDKKVEPKSCDKTHTCPPCPAPELLAGPDVFLFPPKPKDTLMISRTPEVTCVVVDVSHEDPEVKFNWYVDGVEVHNAKTKPREEQYNSTYRVVSVLTVLHQDWLNGKEYKCKVSNKALPAPEEKTISKAKGQPREPQVYTLPPSREEMTKNQVSLTCLVKGFYPSDIAVEWESNGQPENNYKTTPPVLDSDGSFFLYSKLTVDKSRWQQGNVFSCSVMHEALHNHYTQKSLSLSPGK
VL: B5 VL
B7: hu22E12.H1L2-VLPLL (antibody, human IgG1)
heavy: B6 heavy with L235V, A236G, D239S, F243L, R292P, Y300L, E332I, P396L
VL: B5 VL
B8: hu22E12.H1L2-DE (antibody, human IgG1)
heavy: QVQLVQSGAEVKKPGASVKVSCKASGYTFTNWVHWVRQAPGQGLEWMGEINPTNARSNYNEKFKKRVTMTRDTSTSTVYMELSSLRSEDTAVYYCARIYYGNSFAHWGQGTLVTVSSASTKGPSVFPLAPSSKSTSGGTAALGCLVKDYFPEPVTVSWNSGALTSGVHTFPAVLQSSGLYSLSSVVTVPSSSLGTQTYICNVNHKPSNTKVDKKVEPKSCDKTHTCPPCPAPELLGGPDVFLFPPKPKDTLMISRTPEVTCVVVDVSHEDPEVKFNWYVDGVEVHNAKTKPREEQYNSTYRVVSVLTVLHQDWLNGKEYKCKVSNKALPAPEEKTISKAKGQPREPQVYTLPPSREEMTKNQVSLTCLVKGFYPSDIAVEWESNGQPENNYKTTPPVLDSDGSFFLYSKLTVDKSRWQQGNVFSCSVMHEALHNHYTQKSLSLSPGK
VL: B5 VL
B9: hu22E12.H1L2-DLE (antibody, human IgG1)
heavy: B6 heavy with A236G, A330L
VL: B5 VL
B10: 99H8 (antibody, V domains shown)
VH: QVQLQQSGPELVKPGASVKLSCKASGYSFTNFDINWVKQRPGQGLQWIGRLYPRDGTTTYNEKFKGKASLTVDTSSTTSYMDLHSLTSEDSAVYFCVRGNYGNSFAYWGQGTLVTVSA
VL: DIVMTQSPSSLTVTAREKVIMNCKSSQSLFNSGNQKNYLTWYQQKPGQSPKLLIYWASTRQSGVPDRFTGSGSGTDFTLTISTVQAEDLAVYFCQNGFSFPYTFGGGTKLEMN
notes: mouse hybridoma antibody, purified; also called clone 99H8
B11: hu35B4.H1L2-ADE (antibody, human IgG1)
heavy: EVQLLESGGGLVQPGGSLRLSCAASGFTLSSYALSWVRQAPGKGLEWVSYISNLGGSTFYPDTVKGRFTISRDNSKNTLYLQMNSLRAEDTAVYYCAKHLYNYDAFASWGQGTLVTVSSASTKGPSVFPLAPSSKSTSGGTAALGCLVKDYFPEPVTVSWNSGALTSGVHTFPAVLQSSGLYSLSSVVTVPSSSLGTQTYICNVNHKPSNTKVDKKVEPKSCDKTHTCPPCPAPELLAGPDVFLFPPKPKDTLMISRTPEVTCVVVDVSHEDPEVKFNWYVDGVEVHNAKTKPREEQYNSTYRVVSVLTVLHQDWLNGKEYKCKVSNKALPAPEEKTISKAKGQPREPQVYTLPPSREEMTKNQVSLTCLVKGFYPSDIAVEWESNGQPENNYKTTPPVLDSDGSFFLYSKLTVDKSRWQQGNVFSCSVMHEALHNHYTQKSLSLSPGK
VL: B1 VL
B12: hu35B4.H1L2-VLPLL (antibody, human IgG1)
heavy: B11 heavy with L237V, A238G, D241S, F245L, R294P, Y302L, E334I, P398L
VL: B1 VL
B13: hu35B4.H1L2-DE (antibody, human IgG1)
heavy: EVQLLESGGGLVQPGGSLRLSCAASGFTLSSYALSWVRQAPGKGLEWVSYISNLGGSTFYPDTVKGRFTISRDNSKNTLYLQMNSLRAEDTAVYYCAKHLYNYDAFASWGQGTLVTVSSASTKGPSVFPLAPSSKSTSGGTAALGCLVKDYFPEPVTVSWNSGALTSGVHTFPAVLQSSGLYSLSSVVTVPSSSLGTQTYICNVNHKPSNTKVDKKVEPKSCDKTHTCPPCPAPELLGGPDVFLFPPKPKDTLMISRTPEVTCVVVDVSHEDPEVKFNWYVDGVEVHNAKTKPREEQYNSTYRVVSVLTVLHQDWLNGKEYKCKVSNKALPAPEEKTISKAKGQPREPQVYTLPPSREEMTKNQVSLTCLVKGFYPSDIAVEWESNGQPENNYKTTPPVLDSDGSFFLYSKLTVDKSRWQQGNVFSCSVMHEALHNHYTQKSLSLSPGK
VL: B1 VL
B14: hu35B4.H1L2-DLE (antibody, human IgG1)
heavy: B11 heavy with A238G, A332L
VL: B1 VL
B15: ch60F11 (antibody, V domains shown)
VH: QVQLQQPGAELVKPGASVKLSCKASGYTFTSYWMHWVKQRPGQGLEWIGMIHPNSGSTNYNEKFKSKATLTVDKSSSTAYMQLSSLTSEDSAVYYCARMGLGNAMDYWGQGTSVTVSS
VL: B4 VL with K36R, S57A, H93Y, N97A, Y99S
B16: ch97A9 (antibody, V domains shown)
VH: QVQLQQSGPELVKPGASMKLSCKASGYSFTRNDINWVKQRPGQGLEWIGLSYPRDGTTQYNGKFKGKATLTVDTSSSTAYMELRSLTSEDSAVYFCARGYYGNSFAYWGQGTLVTVSA
VL: B4 VL with L21M, S57A, D76Y, H93F, N97D, Y100F, L102Y, A106G, L112I
B17: ch99H8 (antibody, V domains shown)
VH: B10 VH
VL: B10 VL
B18: ch33G12 (antibody, V domains shown)
VH: EVKLVESGGGLVQPGGSLKLSCAASGFTFSRYAMSWVRQTPEKRLEWVAYISIGGTTYYPDTIKGRFTISRDNAKNTLYLQMSSLKSEDTAMYYCTRHYYGHDVMDYWGQGTSVTVSS
VL: B3 VL with A9T, S26T, N30S, I32M, Y35F, A45P, T59A, D75S, N91S, S92R

Biological target: T1, human CLDN18.2 (hCLDN18.2), expressed on cells (human)
T1 construct: the constructs in the cell lines are not described; also called Claudin18.2; HEK293-hCLDN18.2
Experiment: FACS, SNU620 cells over-expressing hCLDN18.2

| Binder | EC50 |
| --- | --- |
| B1 | 253 pM |
| B2 | 350 pM |
| B3 | 419 pM and 442 pM |

Biological target: T1, human CLDN18.2 (hCLDN18.2), expressed …
Experiment: FACS, MFC cells over-expressing hCLDN18.2

| Binder | EC50 |
| --- | --- |
| B4 | 1060 pM and 943 pM |
| B5 | 1320 pM |

Biological target: T1, human CLDN18.2 (hCLDN18.2), expressed …
Experiment: cell-based or functional assay

| Binder | ADCC EC50 (nM), NK-CD16a effector cells |
| --- | --- |
| B4 | 0.126 nM |
| B6 | 0.00765 nM |
| B7 | 0.00997 nM |
| B8 | 0.00637 nM |
| B9 | 0.00503 nM |
| B5 | 0.144 nM |

Biological target: T1, human CLDN18.2 (hCLDN18.2), expressed …
Experiment: FACS, SNU620 cells (endogenous CLDN18.2)

| Binder | EC50 |
| --- | --- |
| B10 | 19000 pM |

Biological target: T1, human CLDN18.2 (hCLDN18.2), expressed …
Experiment: cell-based or functional assay
Remark: another data set of the same source

| Binder | ADCC EC50 (nM), NK-CD16a effector cells |
| --- | --- |
| B11 | 7.1e-05 nM |
| B12 | 9.43e-05 nM |
| B13 | 2.75e-05 nM |
| B14 | 1.32e-05 nM |
| B1 | 0.02 nM |
| B3 | 0.0803 nM |

Biological target: T1, human CLDN18.2 (hCLDN18.2), expressed …
Experiment: FACS, HEK293/hCLDN18.2 cells

| Binder | EC50 |
| --- | --- |
| B10 | 1100 pM |

Biological target: T1, human CLDN18.2 (hCLDN18.2), expressed …
Experiment: cell-based or functional assay
Remark: another data set of the same source

| Binder | PBMC VS NUGC4 ADCC (EC50 nM) |
| --- | --- |
| B15 | 8.69 nM |
| B16 | 6.93 nM |
| B4 | 1.06 nM |
| B17 | 3.31 nM |
| B3 | 4.05 nM |
| B18 | 0.458 nM |
